The values that follow come from the supplement of paper PMC5998384.

In data set [1] the test system is HeLa Kyoto. The data set is described as follows: solubility in G1/S (NP-40 vs SDS abundance) (log2 ratio); higher = more soluble. The following applies: cell cycle stage: G1/S.
Data set [2] deals with HeLa Kyoto. The data set is described as follows: melting temperature (median over replicates), in situ; higher = more thermally stable.
For data set [3], the system named is HeLa Kyoto. Description: solubility change mitosis vs G1/S (difference of NP-40 vs SDS log2 ratios) (log2 ratio difference); higher = more soluble in mitosis.
Data set [4] has as its system HeLa Kyoto. The data set is described as follows: thermal stability score vs G1/S (z-score of summed log2 fold changes over temperatures); higher = more thermally stable than in G1/S.
Setting [5] is: cell cycle stage: early G1 (4.5 h after nocodazole release).
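Wherever melting temperature (median over replicates), in situ is given: HeLa Kyoto cells synchronized by double thymidine or nocodazole block, proteins quantified by TMT10plex mass spectrometry, three independent biological replicates.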
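Wherever solubility change mitosis vs G1/S (difference of NP-40 vs SDS log2 ratios) is given: synchronized HeLa Kyoto cells (double thymidine block for G1/S, nocodazole release for mitosis), protein amounts in NP-40 versus SDS lysates quantified by mass spectrometry, three biological replicates.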
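Wherever solubility in G1/S (NP-40 vs SDS abundance) is given: HeLa Kyoto cells arrested at G1/S by double thymidine block, proteins quantified by TMT10plex mass spectrometry in mild NP-40 versus SDS extracts, three biological replicates.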
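Wherever thermal stability score vs G1/S (z-score of summed log2 fold changes over temperatures) is given: synchronized HeLa Kyoto cells, proteins quantified by TMT10plex mass spectrometry, three biological replicates, mitosis taken 0.5 h after nocodazole release, G1/S directly after double thymidine block.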

“MTHWFHRNPLKATAPVSFNYYGVVTGPSASKICNDLRSSRARLLELFTDLSCNPEMMKNAADSYFSLLQGFINSLDESTQESKLRYIQNFKWTDTLQGQVPSAQQDAVFELISMGFNVALWYTKYASRLAGKENITEDEAKEVHRSLKIAAGIFKHLKESHLPKLITPAEKGRDLESRLIEAYVIQCQAEAQEVTIARAIELKHAPGLIAALAYETANFYQKADHTLSSLEPAYSAKWRKYLHLKMCFYTAYAYCYHGETLLASDKCGEAIRSLQEAEKLYAKAEALCKEYGETKGPGPTVKPSGHLFFRKLGNLVKNTLEKCQRENGFIYFQKIPTEAPQLELKANYGLVEPIPFEFPPTSVQWTPETLAAFDLTKRPKDDSTKPKPEEEVKPVKEPDIKPQKDTGCYIS [BROX]”: the “solubility in G1/S (log2)” value in the data set with HeLa Kyoto [1] was 0.511. In addition, the melting temperature in the data set on HeLa Kyoto [2] (cell cycle stage: G1/S) turned out to be 49.6 °C; in the data set with HeLa Kyoto [2] (cell cycle stage: mitosis), 49.8 °C. Besides, in the data set with HeLa Kyoto [3], the “solubility change mitosis (log2)” value is -0.114. Moreover, the results for the thermal stability score with HeLa Kyoto [4] (setting [5]) and in the data set on HeLa Kyoto [4] (cell cycle stage: mitosis) were -0.298 and 0.407, respectively.
For the sequence “MNNHVSSKPSTMKLKHTINPILLYFIHFLISLYTILTYIPFYFFSESRQEKSNRIKAKPVNSKPDSAYRSVNSLDGLASVLYPGCDTLDKVFTYAKNKFKNKRLLGTREVLNEEDEVQPNGKIFKKVILGQYNWLSYEDVFVRAFNFGNGLQMLGQKPKTNIAIFCETRAEWMIAAQACFMYNFQLVTLYATLGGPAIVHALNETEVTNIITSKELLQTKLKDIVSLVPRLRHIITVDGKPPTWSEFPKGIIVHTMAAVEALGAKASMENQPHSKPLPSDIAVIMYTSGSTGLPKGVMISHSNIIAGITGMAERIPELGEEDVYIGYLPLAHVLELSAELVCLSHGCRIGYSSPQTLADQSSKIKKGSKGDTSMLKPTLMAAVPEIMDRIYKNVMNKVSEMSSFQRNLFILAYNYKMEQISKGRNTPLCDSFVFRKVRSLLGGNIRLLLCGGAPLSATTQRFMNICFCCPVGQGYGLTESAGAGTISEVWDYNTGRVGAPLVCCEIKLKNWEEGGYFNTDKPHPRGEILIGGQSVTMGYYKNEAKTKADFFEDENGQRWLCTGDIGEFEPDGCLKIIDRKKDLVKLQAGEYVSLGKVEAALKNLPLVDNICAYANSYHSYVIGFVVPNQKELTELARKKGLKGTWEELCNSCEMENEVLKVLSEAAISASLEKFEIPVKIRLSPEPWTPETGLVTDAFKLKRKELKTHYQADIERMYGRK [ACSL3]”, in the data set on HeLa Kyoto [1], the “solubility in G1/S (log2)” value is -0.101. Also, the melting temperature is 50.7 °C in the data set with HeLa Kyoto [2] (cell cycle stage: G1/S) and 51.2 °C in the data set on HeLa Kyoto [2] (cell cycle stage: mitosis). Further, in the data set on HeLa Kyoto [3], the “solubility change mitosis (log2)” value is -0.129. Moreover, the thermal stability score came out at 1.86 in the data set with HeLa Kyoto [4] (setting [5]) and 3.88 in the data set on HeLa Kyoto [4] (cell cycle stage: mitosis).
With “MRLSSLLALLRPALPLILGLSLGCSLSLLRVSWIQGEGEDPCVEAVGERGGPQNPDSRARLDQSDEDFKPRIVPYYRDPNKPYKKVLRTRYIQTELGSRERLLVAVLTSRATLSTLAVAVNRTVAHHFPRLLYFTGQRGARAPAGMQVVSHGDERPAWLMSETLRHLHTHFGADYDWFFIMQDDTYVQAPRLAALAGHLSINQDLYLGRAEEFIGAGEQARYCHGGFGYLLSRSLLLRLRPHLDGCRGDILSARPDEWLGRCLIDSLGVGCVSQHQGQQYRSFELAKNRDPEKEGSSAFLSAFAVHPVSEGTLMYRLHKRFSALELERAYSEIEQLQAQIRNLTVLTPEGEAGLSWPVGLPAPFTPHSRFEVLGWDYFTEQHTFSCADGAPKCPLQGASRADVGDALETALEQLNRRYQPRLRFQKQRLLNGYRRFDPARGMEYTLDLLLECVTQRGHRRALARRVSLLRPLSRVEILPMPYVTEATRVQLVLPLLVAEAAAAPAFLEAFAANVLEPREHALLTLLLVYGPREGGRGAPDPFLGVKAAAAELERRYPGTRLAWLAVRAEAPSQVRLMDVVSKKHPVDTLFFLTTVWTRPGPEVLNRCRMNAISGWQAFFPVHFQEFNPALSPQRSPPGPPGAGPDPPSPPGADPSRGAPIGGRFDRQASAEGCFYNADYLAARARLAGELAGQEEEEALEGLEVMDVFLRFSGLHLFRAVEPGLVQKFSLRDCSPRLSEELYHRCRLSNLEGLGGRAQLAMALFEQEQANST [CHPF2]”, the “solubility in G1/S (log2)” value in the data set on HeLa Kyoto [1] was -0.00882. For the same sequence, the melting temperature was 53.4 °C in the data set with HeLa Kyoto [2] (cell cycle stage: G1/S) and 53 °C with HeLa Kyoto [2] (cell cycle stage: mitosis). Also, the “solubility change mitosis (log2)” value in the data set on HeLa Kyoto [3] is -0.00799. Moreover, the thermal stability score was -0.504 with HeLa Kyoto [4] (setting [5]) and -0.497 in the data set on HeLa Kyoto [4] (cell cycle stage: mitosis).
With “MGDSDDEYDRRRRDKFRRERSDYDRSRERDERRRGDDWNDREWDRGRERRSRGEYRDYDRNRRERFSPPRHELSPPQKRMRRDWDEHSSDPYHSGYEMPYAGGGGGPTYGPPQPWGHPDVHIMQHHVLPIQARLGSIAEIDLGVPPPVMKTFKEFLLSLDDSVDETEAVKRYNDYKLDFRRQQMQDFFLAHKDEEWFRSKYHPDEVGKRRQEARGALQNRLRVFLSLMETGWFDNLLLDIDKADAIVKMLDAAVIKMEGGTENDLRILEQEEEEEQAGKPGEPSKKEEGRAGAGLGDGERKTNDKDEKKEDGKQAENDSSNDDKTKKSEGDGDKEEKKEDSEKEAKKSSKKRNRKHSGDDSFDEGSVSESESESESGQAEEEKEEAEEALKEKEKPKEEEWEKPKDAAGLECKPRPLHKTCSLFMRNIAPNISRAEIISLCKRYPGFMRVALSEPQPERRFFRRGWVTFDRSVNIKEICWNLQNIRLRECELSPGVNRDLTRRVRNINGITQHKQIVRNDIKLAAKLIHTLDDRTQLWASEPGTPPLPTSLPSQNPILKNITDYLIEEVSAEEEELLGSSGGAPPEEPPKEGNPAEINVERDEKLIKVLDKLLLYLRIVHSLDYYNTCEYPNEDEMPNRCGIIHVRGPMPPNRISHGEVLEWQKTFEEKLTPLLSVRESLSEEEAQKMGRKDPEQEVEKFVTSNTQELGKDKWLCPLSGKKFKGPEFVRKHIFNKHAEKIEEVKKEVAFFNNFLTDAKRPALPEIKPAQPPGPAQILPPGLTPGLPYPHQTPQGLMPYGQPRPPILGYGAGAVRPAVPTGGPPYPHAPYGAGRGNYDAFRGQGGYPGKPRNRMVRGDPRAIVEYRDLDAPDDVDFF [SRRT]”, in the data set with HeLa Kyoto [1], the “solubility in G1/S (log2)” value was -0.305. Moreover, the values for the melting temperature in the data set with HeLa Kyoto [2] (cell cycle stage: G1/S) and in the data set on HeLa Kyoto [2] (cell cycle stage: mitosis) were 48.2 °C and 49.1 °C, respectively. In addition, the “solubility change mitosis (log2)” value with HeLa Kyoto [3] came out at 0.214. Further, the thermal stability score in the data set on HeLa Kyoto [4] (setting [5]) was 2.79; in the data set with HeLa Kyoto [4] (cell cycle stage: mitosis), 6.86.
For the sequence “MAEPDPSHPLETQAGKVQEAQDSDSDSEGGAAGGEADMDFLRNLFSQTLSLGSQKERLLDELTLEGVARYMQSERCRRVICLVGAGISTSAGIPDFRSPSTGLYDNLEKYHLPYPEAIFEISYFKKHPEPFFALAKELYPGQFKPTICHYFMRLLKDKGLLLRCYTQNIDTLERIAGLEQEDLVEAHGTFYTSHCVSASCRHEYPLSWMKEKIFSEVTPKCEDCQSLVKPDIVFFGESLPARFFSCMQSDFLKVDLLLVMGTSLQVQPFASLISKAPLSTPRLLINKEKAGQSDPFLGMIMGLGGGMDFDSKKAYRDVAWLGECDQGCLALAELLGWKKELEDLVRREHASIDAQSGAGVPNPSTSASPKKSPPPAKDEARTTEREKPQ [SIRT2]”, in the data set with HeLa Kyoto [1], the “solubility in G1/S (log2)” value was 0.229. In addition, the melting temperature in the data set on HeLa Kyoto [2] (cell cycle stage: G1/S) was found to be 51.4 °C; in the data set with HeLa Kyoto [2] (cell cycle stage: mitosis) it was 52.5 °C. For the same sequence, in the data set on HeLa Kyoto [3], the “solubility change mitosis (log2)” value was -0.026. Moreover, the thermal stability score in the data set with HeLa Kyoto [4] (setting [5]) is 0.148; in the data set on HeLa Kyoto [4] (cell cycle stage: mitosis), -0.178.
